The values below come from patent publication US20230123041A1 (IMMUNOME, published 2023).

Assay [1] deals with T1, Hu/Cy/Rh ROR1 - His (human/cynomolgus/rhesus (Hu/Cy/Rh), UniProt Q01973 30-403, limits assumed).
T1 construct: Purified His-tagged protein; also called human/cyno/rhesus ROR-1; not shown: His tag
Kind of assay: SPR (Carterra); cell 'Kinetics (KD)' of 4A5 in the row and the column heads of the binning table; no unit is printed on the sheet, the four other KD cells equal the KD (M) values of Table 2 for Hu/Cy/Rh ROR1 - His.

The target of assay [2] is T2, human ROR-1 endogenously expressed on JeKo-1 and MDA-MB-468 cells (human, UniProt Q01973 30-937). As to the kind of experiment: cell-based or functional assay.
Assay [3] addresses T1, Hu/Cy/Rh ROR1 - His. Kind of assay: SPR, binding to purified His-tagged protein.
Assay [4] deals with T2, human ROR-1 endogenously expressed on …. Kind of assay: flow cytometry, antibody titration on ROR-1 positive JeKo-1 cells, secondary antibody staining, Net MFI [left panel].
Assay [5] shares this target. Kind of assay: flow cytometry, antibody titration on ROR-1 positive JeKo-1 cells, secondary antibody staining, Net MFI [right panel]. An excerpt:
FIG. 27 illustrates a measurement of cell binding saturation data for the anti-ROR-1 antibodies generated by the methods described herein. […] Cells were washed, stained with secondary antibody and cell binding saturation was detected by flow cytometry and reported as mean fluorescent intensity (MFI).
A cell binding saturation assay was developed to evaluate how well the anti_ROR-1 antibodies developed in Example 28 bound to endogenously expressed extracellular ROR-1 protein on cell lines. […] Briefly, two ROR-1 positive cell lines, JeKo-1 and MDA-MB-468, were incubated in a titration series concentration of each antibody construct. Cells were then washed and subjected to secondary antibody staining and detection by flow cytometry. Mean fluorescence (MFI) was determined by analysis on cytometer software. […] (See FIG. 27).

For assay [6] the target is unchanged. Kind of assay: cellular binning by flow cytometry on MDA-MB-468 cells; antibody titrated, stained with labelled secondary antibody, % Top MFI [29C left panel]. The protocol: (§1) Next, the anti-ROR-1 antibodies were fluorescently labeled with a secondary antibody.
(§2) In Step 2, a fluorescently labeled secondary antibody recognizing the novel antibodies was incubated with the samples.

The target is the same in assay [7]. Kind of assay: cellular binning by flow cytometry on MDA-MB-468 cells; antibody titrated, stained with labelled secondary antibody, % Top MFI [29D left panel]. How it is done:
as §1, §2

The target is the same in assay [8]. As to the kind of experiment: cellular binning by flow cytometry on MDA-MB-468 cells; ATX-P-875 titrated first, then a saturating dose of the competitor 4A5-PE [29D left panel]. How it is done:
as §1, §2

The target is the same in assay [9]. As to the kind of experiment: cellular binning by flow cytometry on MDA-MB-468 cells; antibody titrated, stained with labelled secondary antibody, % Top MFI [29C middle panel]. The protocol: as §1, §2
Assay [10] has the same target. Kind of assay: cellular binning by flow cytometry on MDA-MB-468 cells; antibody titrated, stained with labelled secondary antibody, % Top MFI [29D middle panel]. The protocol:
as §1, §2

Assay [11] shares this target. As to the kind of experiment: cellular binning by flow cytometry on MDA-MB-468 cells; ATX-P-885 titrated first, then a saturating dose of the competitor Dy650-UC961; partial inhibition [29C middle panel]. How it is done:
as §1, §2

B1: 4A5 (antibody, V domains shown)
VH: EVKLVESGGGLVKPGGSLKLSCAASGFTFSSYAMSWVRQIPEKRLEWVASISRGGTTYYPDSVKGRFTISRDNVRNILYLQMSSLRSEDTAMYYCGRYDYDGYYAMDYWGQGTSVTVSS
VL: DIKMTQSPSSMYASLGERVTITCKASPDINSYLSWFQQKPGKSPKTLIYRANRLVDGVPSRFSGGGSGQDYSLTINSLEYEDMGIYYCLQYDEFPYTFGGGTKLEMK
The molecule B1 had a Kd with Hu/Cy/Rh ROR1 - His [1] of 2.81 nM.

B2: UC961 (ATX-P-453) (antibody, V domains shown)
VH: QVQLQESGPGLVKPSQTLSLTCTVSGYAFTAYNIHWVRQAPGQGLEWMGSFDPYDGGSSYNQKFKDRLTISKDTSKNQVVLTMTNMDPVDTATYYCARGWYYFDYWGHGTLVTVSS
VL: DIVMTQTPLSLPVTPGEPASISCRASKSISKYLAWYQQKPGQAPRLLIYSGSTLQSGIPPRFSGSGYGTDFTLTINNIESEDAAYYFCQQHDESPYTFGEGTKVEIK
With B2, the “percent receptor internalization relative to time zero (flow cytometry of antibody remaining on the surface, JeKo-1 and MDA-MB-468)” value in assay [2] was no less than 75%. In the assay with Hu/Cy/Rh ROR1 - His [3], binding was characterised by a dissociation constant (Kd) of 4.69 nM, the koff came out at 0.00591 s⁻¹ and the kon came out at 1.26e+06 M⁻¹ s⁻¹. The 50% effective concentration (EC50 (read off the curve)) in assay [4] is roughly 0.02 nM. Further, the “EC50 (read off the curve)” value in [5] was roughly 0.1 nM.

B3: ATX-P-875 (antibody, human IgG1, kappa, V domains shown)
VH: not shown
VL: DIQMTQSPSSLSASVGDRVTITCRASQSISSYLNWYQQKPGKAPKLLIYAASSLQSGVPSRFSGSGSGTDFTLTISSLQPEDFATYYCQQYDNLPITFGQGTRLEIKR
notes: also called mAb A
Take B3: the “EC50 (read off the curve)” value in assay [6] is roughly 0.9 nM; in [7] it was roughly 0.6 nM. Also, the “IC50 (read off the curve)” value in assay [8] is roughly 0.7 nM.

B4: ATX-P-885 (antibody, human IgG1, kappa, V domains shown)
VH: QVQLQQWGAGLLKPSETLSLTCAVYGGSFSGYYWSWIRQPPGKGLEWIGEINHSGSTNYNPSLKSRVTISVDTSKNQFSLKLSSVTAADTAVYYCAREGVYEDYWGQGTLVTVSS
VL: EIVLTQSPATLSLSPGERATLSCRASQSVSNYLAWYQQKPGQAPRLLIYDAYNRATGIPARFSGSGSGTDFTLTISSLEPEDFAVYYCQQRSNWPLTFGQGTRLEIKR
notes: also called mAb B
For B4, the “EC50 (read off the curve)” value in assay [5] is roughly 0.3 nM; in assay [9] it was roughly 3 nM; in assay [10] it was roughly 2 nM. Moreover, the “IC50 (read off the curve)” value in [11] was roughly 3 nM.
